Results as given in PMC6561789 (Molecular microbiology, 2019).

B1: HigA antitoxin (Proteus vulgaris, Rts1 plasmid), wild type (natural protein)
chain: MRQFKVSHPGEMIARDLEDMGVSGRRFAHNIGVTPATVSRLLAGKTALTPSLSIRIAAALGSTPEFWLRLQSNYDLRQLENQIDTSGIVLYGESNEQQQNAQEH
B2: HigA R40A variant (Proteus vulgaris, Rts1 plasmid) (natural protein)
chain: MRQFKVSHPGEMIARDLEDMGVSGRRFAHNIGVTPATVSALLAGKTALTPSLSIRIAAALGSTPEFWLRLQSNYDLRQLENQIDTSGIVLYGESNEQQQNAQEH

What was measured:
[1] = biological target: the molecule itself; test: AUC
[2] = biological target: the molecule itself; test: SEC

| Protein | stoichiometry N [1] | stoichiometry N [2] |
| --- | --- | --- |
| B1 | 2 | – |
| B2 | – | 2 |
